Like-named read-outs stand apart in the source and are kept apart here.
Tests used:
[1] = biological target: T1, cyno TfR extracellular domain (analogous construct to human TfR ecd) (cynomolgus monkey, UniProt Q5RDH6 87-760 (Pongo abelii entry)); test: SPR, KD on cyno TfR over KD on human TfR
T1 construct: also called cynoTfR ecd
T1 chain: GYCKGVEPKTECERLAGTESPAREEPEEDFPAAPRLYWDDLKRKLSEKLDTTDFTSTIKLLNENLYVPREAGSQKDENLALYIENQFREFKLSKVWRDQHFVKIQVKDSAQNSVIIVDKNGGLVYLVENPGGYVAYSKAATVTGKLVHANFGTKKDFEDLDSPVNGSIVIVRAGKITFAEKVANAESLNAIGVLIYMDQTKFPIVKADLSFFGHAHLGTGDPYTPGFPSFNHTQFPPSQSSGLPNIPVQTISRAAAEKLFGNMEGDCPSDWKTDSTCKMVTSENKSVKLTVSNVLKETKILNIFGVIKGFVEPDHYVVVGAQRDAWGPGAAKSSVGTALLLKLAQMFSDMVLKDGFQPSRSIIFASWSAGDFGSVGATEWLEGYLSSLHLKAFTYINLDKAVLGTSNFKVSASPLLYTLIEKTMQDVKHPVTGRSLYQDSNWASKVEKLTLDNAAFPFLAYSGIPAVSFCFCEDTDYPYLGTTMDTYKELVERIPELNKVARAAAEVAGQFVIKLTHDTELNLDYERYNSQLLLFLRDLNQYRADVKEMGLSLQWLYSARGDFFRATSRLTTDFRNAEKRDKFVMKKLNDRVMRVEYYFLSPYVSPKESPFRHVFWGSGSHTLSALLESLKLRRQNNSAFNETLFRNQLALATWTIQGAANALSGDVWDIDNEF

[2] = biological target: T2, human TfR extracellular domain with N-terminal His tag (human, UniProt P02786 89-760); test: SPR, TfR captured by anti-His, Fab injected
T2 construct: Biotinylated in some assays; also called huTfR; HuTfR
T2 sequence (P02786 89-760 G142S): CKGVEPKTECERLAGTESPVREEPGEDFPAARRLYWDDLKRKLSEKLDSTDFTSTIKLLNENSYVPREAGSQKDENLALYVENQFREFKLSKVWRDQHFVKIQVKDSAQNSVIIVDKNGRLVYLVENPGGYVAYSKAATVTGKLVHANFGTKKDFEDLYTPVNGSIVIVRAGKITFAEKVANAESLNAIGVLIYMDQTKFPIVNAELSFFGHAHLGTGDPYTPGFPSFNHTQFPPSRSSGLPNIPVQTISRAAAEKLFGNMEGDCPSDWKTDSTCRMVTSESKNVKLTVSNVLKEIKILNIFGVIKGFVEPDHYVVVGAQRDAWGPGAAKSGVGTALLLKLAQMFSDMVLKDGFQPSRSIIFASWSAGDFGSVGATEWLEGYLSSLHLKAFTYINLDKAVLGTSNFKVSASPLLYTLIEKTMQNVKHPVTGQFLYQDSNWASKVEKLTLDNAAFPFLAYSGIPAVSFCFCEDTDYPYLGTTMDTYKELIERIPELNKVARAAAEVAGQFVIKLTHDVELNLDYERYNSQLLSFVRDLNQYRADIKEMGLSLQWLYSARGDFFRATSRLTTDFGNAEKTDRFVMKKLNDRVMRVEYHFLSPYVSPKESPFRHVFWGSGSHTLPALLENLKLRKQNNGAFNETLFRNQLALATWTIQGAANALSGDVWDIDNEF

[3] = biological target: T1, cyno TfR extracellular domain …; test: SPR, TfR captured by anti-His, Fab injected
human BACE1 ECD [4] = biological target: T3, human BACE1 ECD; test: Octet, pH 5.0;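 note: antibodies captured on anti-human capture sensor tips, dissociation monitored in PBS with BSA buffer, kinetics fitted with a one-to-one binding model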
T3 construct: analyte of the Octet assay (200 nM) and enzyme of the first short substrate assay; also called human BACE1 extracellular domain
T3 sequence (single chain, as listed by the source limits assumed): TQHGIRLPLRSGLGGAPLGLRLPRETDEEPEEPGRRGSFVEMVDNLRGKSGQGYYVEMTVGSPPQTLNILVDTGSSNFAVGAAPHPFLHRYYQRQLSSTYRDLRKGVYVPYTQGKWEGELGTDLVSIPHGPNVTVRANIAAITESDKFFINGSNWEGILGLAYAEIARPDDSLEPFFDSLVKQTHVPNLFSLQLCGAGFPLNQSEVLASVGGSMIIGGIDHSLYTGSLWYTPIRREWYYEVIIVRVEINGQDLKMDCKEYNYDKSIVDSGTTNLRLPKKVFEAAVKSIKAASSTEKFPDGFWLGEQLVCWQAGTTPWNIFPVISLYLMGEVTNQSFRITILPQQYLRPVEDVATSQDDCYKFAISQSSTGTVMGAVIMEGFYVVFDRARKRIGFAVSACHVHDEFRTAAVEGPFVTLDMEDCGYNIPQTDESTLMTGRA

murine BACE1 ECD [5] = biological target: T4, murine BACE1 ECD; test: Octet, pH 5.0;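 note: antibodies captured on anti-human capture sensor tips, dissociation monitored in PBS with BSA buffer, kinetics fitted with a one-to-one binding model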
T4 construct: analyte of the Octet assay (200 nM) and enzyme of the first short substrate assay
T4 sequence (single chain, as listed by the source limits assumed): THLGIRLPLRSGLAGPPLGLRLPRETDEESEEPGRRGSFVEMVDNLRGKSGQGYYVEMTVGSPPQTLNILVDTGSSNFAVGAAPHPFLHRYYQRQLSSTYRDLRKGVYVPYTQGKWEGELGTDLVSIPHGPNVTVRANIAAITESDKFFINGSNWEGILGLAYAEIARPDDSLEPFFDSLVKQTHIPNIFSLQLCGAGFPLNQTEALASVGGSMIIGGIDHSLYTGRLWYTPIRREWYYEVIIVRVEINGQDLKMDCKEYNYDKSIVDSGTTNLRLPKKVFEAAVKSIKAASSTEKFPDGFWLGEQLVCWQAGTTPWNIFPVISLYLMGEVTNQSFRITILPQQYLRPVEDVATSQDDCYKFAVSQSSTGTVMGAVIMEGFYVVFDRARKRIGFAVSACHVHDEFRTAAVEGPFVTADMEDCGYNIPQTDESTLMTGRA

human BACE1 ECD [6] = biological target: T3, human BACE1 ECD; test: Octet, pH 7.5;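 note: antibodies captured on anti-human capture biosensor tips, dissociation followed in PBS with BSA buffer, kinetics fitted with a one-to-one binding model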
murine BACE1 ECD [7] = biological target: T4, murine BACE1 ECD; test: Octet, pH 7.5;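 note: antibodies captured on anti-human capture biosensor tips, dissociation followed in PBS with BSA buffer, kinetics fitted with a one-to-one binding model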
[8] = biological target: T5, human BACE1 (R&D Systems) (human, UniProt P56817); test: SPR (Biacore)
T5 construct: recombinant, commercial (R&D Systems)
T5 sequence (P56817 22-457 limits assumed): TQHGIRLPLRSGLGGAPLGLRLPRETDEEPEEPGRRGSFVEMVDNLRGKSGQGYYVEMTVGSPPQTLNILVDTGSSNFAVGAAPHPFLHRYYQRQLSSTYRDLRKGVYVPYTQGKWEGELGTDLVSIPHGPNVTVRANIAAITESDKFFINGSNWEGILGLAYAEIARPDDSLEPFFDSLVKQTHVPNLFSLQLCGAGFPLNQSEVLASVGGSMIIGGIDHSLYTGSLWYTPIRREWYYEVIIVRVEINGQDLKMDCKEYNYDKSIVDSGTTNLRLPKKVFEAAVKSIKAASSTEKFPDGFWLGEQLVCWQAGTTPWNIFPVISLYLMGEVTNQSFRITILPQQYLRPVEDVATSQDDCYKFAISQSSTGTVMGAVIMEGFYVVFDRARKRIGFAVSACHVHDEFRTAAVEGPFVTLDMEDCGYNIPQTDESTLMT

human BACE1 ECD [9] = biological target: T3, human BACE1 ECD; test: cell-based or functional assay
murine BACE1 ECD [10] = biological target: T4, murine BACE1 ECD; test: cell-based or functional assay
[11] = biological target: BACE1 (HTRF long substrate and FRET short substrate assays of Example 9D); test: cell-based or functional assay
[12] = biological target: T6, BACE1 in primary mouse cortical neurons (mouse, UniProt P56818 46-501); test: cell-based or functional assay
T6 sequence (P56818 46-501): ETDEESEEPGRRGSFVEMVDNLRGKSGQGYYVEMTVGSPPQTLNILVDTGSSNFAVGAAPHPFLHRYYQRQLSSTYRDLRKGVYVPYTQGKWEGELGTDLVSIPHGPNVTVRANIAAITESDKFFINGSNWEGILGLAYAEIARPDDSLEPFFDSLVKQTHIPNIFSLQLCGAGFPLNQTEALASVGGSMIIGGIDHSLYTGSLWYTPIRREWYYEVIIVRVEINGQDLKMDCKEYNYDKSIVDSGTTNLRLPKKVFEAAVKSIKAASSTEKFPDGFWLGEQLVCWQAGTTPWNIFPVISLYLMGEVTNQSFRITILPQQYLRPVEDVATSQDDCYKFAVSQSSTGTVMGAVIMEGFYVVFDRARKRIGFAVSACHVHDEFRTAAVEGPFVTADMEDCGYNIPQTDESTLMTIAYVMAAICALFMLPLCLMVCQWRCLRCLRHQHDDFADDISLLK

human BACE1 ECD [13] = biological target: T3, human BACE1 ECD; test: Octet, pH 5.0, second run
murine BACE1 ECD [14] = biological target: T4, murine BACE1 ECD; test: Octet, pH 5.0, second run
human BACE1 ECD [15] = biological target: T3, human BACE1 ECD; test: Octet, pH 7.5, second run
murine BACE1 ECD [16] = biological target: T4, murine BACE1 ECD; test: Octet, pH 7.5, second run
[17] = biological target: T6, BACE1 in primary mouse cortical neurons; test: cell-based or functional assay; remark: listed apart in the source
[18] = biological target: T2, human TfR extracellular domain with …; test: SPR, Fab
[19] = biological target: T1, cyno TfR extracellular domain …; test: SPR, Fab
[20] = biological target: T1, cyno TfR extracellular domain …; test: SPR, KD on cyno TfR over KD on human TfR
[21] = biological target: T2, human TfR extracellular domain with …; test: SPR, TfR captured by anti-His, Fab injected; remark: listed apart in the source
[22] = biological target: T1, cyno TfR extracellular domain …; test: SPR, TfR captured by anti-His, Fab injected

B1: Mu16F6.Fab (Fab, V domains shown)
VH: DVQLQESGPGLVKPSQSLSLTCTVTGNSITSEYAWNWIRQFPGNKLEWMGYISYSGTTSYNPSLKSRISITRDTSKNQLFLQLNSVTTEDTATYFCARYGYGNPATRYFDVWGAGTTVTVSS
VL: DVQITQSPSYLTASPGETITINCRASKSISKYLAWYQEKPGKTNKLLIYSGSTLQSGIPSRFSGSGSGTDFTLTISNLEPEDFAMYYCQQHNEYPWTFGGGTKLEIK
notes: Fab; also called mouse 16F6 Fab
[1]
  Cy/hu ratio: 8.56
[2]
  koff: 0.00019 s⁻¹
  kon: 60700 M⁻¹ s⁻¹
[3]
  koff: 0.00137 s⁻¹
  kon: 51100 M⁻¹ s⁻¹

B2: 5894 (antibody, V domains shown)
VH: QVQLVQSGAEVKKPGSSVKVSCKASGGTFSGYAISWVRQAPGQGLEWMGNIIPGFGTANYAQKFQGRVTITADESTSTAYMELSSLRSEDTAVYYCARSGGTKYGMLDVWGQGTMVTVSS
VL: EIVMTQSPATLSVSPGERATLSCRASQSVGSNLAWYQQKPGQAPRLLIYGASTRATGIPARFSGSGSGTEFTLTISSLQSEDFAVYYCQQLYTWPPRTFGGGTKVEIK
notes: anti-BACE1 IgG
Human BACE1 ECD [4]
  Kd: 0.3 nM
Murine BACE1 ECD [5]
  Kd: 0.65 nM
Human BACE1 ECD [6]
  Kd: 0.27 nM
Murine BACE1 ECD [7]
  Kd: 0.86 nM
[8]
  Kd: 2.95 nM
Human BACE1 ECD [9]
  % inhibition of BACE1 activity, short FRET substrate: 69%
Murine BACE1 ECD [10]
  % inhibition of BACE1 activity, short FRET substrate: 69%
[11]
  EC50, FRET short substrate: 8.58 nM
  EC50, HTRF long substrate: 1.79 nM
[12]
  IC50, Abeta x-40 in mouse cortical neurons: 6.48 nM
  IC50, Abeta x-40 in mouse cortical neurons (5894*, second run): 5.43 nM
  maximal % inhibition of Abeta x-40: 78%
Human BACE1 ECD [13]
  Kd: < 0.27 nM
Murine BACE1 ECD [14]
  Kd: < 0.38 nM
Human BACE1 ECD [15]
  Kd: < 0.38 nM
Murine BACE1 ECD [16]
  Kd: < 0.4 nM

B3: 5905 (antibody, V domains shown)
VH: QLQLQESGPGLVKPSETLSLTCTVSGGSISWSSYYWSWIRQPPGKGLEWIGSIYRSGRTYYNPSLKSRVTISVDTSKNQFSLKLSSVTAADTAVYYCARVGHGISYFDLWGRGTLVTVSS
VL: EIVLTQSPATLSLSPGERATLSCRASQSVSSYLAWYQQKPGQAPRLLIYDASKRATGIPARFSGSGSGTDFTLTISSLEPEDFAVYYCQQVYTWPPRTFGGGTKVEIK
notes: anti-BACE1 IgG
Human BACE1 ECD [4]
  Kd: 1.1 nM
Murine BACE1 ECD [5]
  Kd: 1.1 nM
Human BACE1 ECD [6]
  Kd: 1.3 nM
Murine BACE1 ECD [7]
  Kd: 1.4 nM
[8]
  Kd: 3.53 nM
Human BACE1 ECD [9]
  % inhibition of BACE1 activity, short FRET substrate: 65%
Murine BACE1 ECD [10]
  % inhibition of BACE1 activity, short FRET substrate: 72%
[11]
  EC50, FRET short substrate: 1.33 nM
  EC50, HTRF long substrate: 3.91 nM
[17]
  IC50, Abeta x-40 in mouse cortical neurons: 0.33 nM
  IC50, Abeta x-40 in mouse cortical neurons (5905*, second run): 0.83 nM
  maximal % inhibition of Abeta x-40: 65%
Human BACE1 ECD [13]
  Kd: 0.27 nM
Murine BACE1 ECD [14]
  Kd: 0.38 nM
Human BACE1 ECD [15]
  Kd: 0.51 nM
Murine BACE1 ECD [16]
  Kd: 0.4 nM

B4: G93A (Fab, V domains shown)
VH: EVQLVQSGAEVKKPGASVKVSCKASGYTFTSYWMHWVRQAPGQRLEWIGEINPTNGRTNYIEKFKSRATLTVDKSASTAYMELSSLRSEDTAVYYCARGTRAYHYWGQGTMVTVSS
VL: DIQMTQSPSSLSASVGDRVTITCRASDNLYSNLAWYQQKPGKSPKLLVYDATNLADGVPSRFSGSGSGTDYTLTISSLQPEDFATYYCQHFWATPLTFGQGTKVEIK
notes: also called 15G11.v5 G93A (CDR-L3) Fab
[18]
  Kd: 245 nM
[19]
  Kd: 1300 nM

B5: Hu15G11.HC51A Fab (Fab, V domains shown)
VH: EVQLVQSGAEVKKPGASVKVSCKASGYTFTSYWMHWVRQAPGQRLEWIGEANPTNGRTNYIEKFKSRATLTVDKSASTAYMELSSLRSEDTAVYYCARGTRAYHYWGQGTMVTVSS
VL: DIQMTQSPSSLSASVGDRVTITCRASDNLYSNLAWYQQKPGKSPKLLVYDATNLADGVPSRFSGSGSGTDYTLTISSLQPEDFATYYCQHFWGTPLTFGQGTKVEIK
notes: Fab
[20]
  Cy/hu ratio: 4.4
[21]
  koff: 0.0104 s⁻¹
  kon: 433000 M⁻¹ s⁻¹
[22]
  koff: 0.0329 s⁻¹
  kon: 313000 M⁻¹ s⁻¹

B6: Hu15G11.HC34A Fab (Fab, V domains shown)
VH: EVQLVQSGAEVKKPGASVKVSCKASGYTFTSYWAHWVRQAPGQRLEWIGEINPTNGRTNYIEKFKSRATLTVDKSASTAYMELSSLRSEDTAVYYCARGTRAYHYWGQGTMVTVSS
VL: DIQMTQSPSSLSASVGDRVTITCRASDNLYSNLAWYQQKPGKSPKLLVYDATNLADGVPSRFSGSGSGTDYTLTISSLQPEDFATYYCQHFWGTPLTFGQGTKVEIK
notes: Fab
[20]
  Cy/hu ratio: 4.6
[21]
  koff: 0.00403 s⁻¹
  kon: 564000 M⁻¹ s⁻¹
[22]
  koff: 0.0099 s⁻¹
  kon: 304000 M⁻¹ s⁻¹

B7: P95A (Fab, V domains shown)
VH: EVQLVQSGAEVKKPGASVKVSCKASGYTFTSYWMHWVRQAPGQRLEWIGEINPTNGRTNYIEKFKSRATLTVDKSASTAYMELSSLRSEDTAVYYCARGTRAYHYWGQGTMVTVSS
VL: DIQMTQSPSSLSASVGDRVTITCRASDNLYSNLAWYQQKPGKSPKLLVYDATNLADGVPSRFSGSGSGTDYTLTISSLQPEDFATYYCQHFWGTALTFGQGTKVEIK
notes: also called 15G11.v5 P95A (CDR-L3) Fab
[18]
  Kd: 170 nM
[19]
  Kd: 886 nM

B8: Hu15G11.HC53A Fab (Fab, V domains shown)
VH: EVQLVQSGAEVKKPGASVKVSCKASGYTFTSYWMHWVRQAPGQRLEWIGEINPANGRTNYIEKFKSRATLTVDKSASTAYMELSSLRSEDTAVYYCARGTRAYHYWGQGTMVTVSS
VL: DIQMTQSPSSLSASVGDRVTITCRASDNLYSNLAWYQQKPGKSPKLLVYDATNLADGVPSRFSGSGSGTDYTLTISSLQPEDFATYYCQHFWGTPLTFGQGTKVEIK
notes: Fab; also called 15G11.53A Fab
[20]
  Cy/hu ratio: 4
[21]
  koff: 0.0115 s⁻¹
  kon: 890000 M⁻¹ s⁻¹
[22]
  koff: 0.025 s⁻¹
  kon: 484000 M⁻¹ s⁻¹

B9: Hu16F6.v4.Fab (Fab, V domains shown)
VH: EVQLVESGPGLVKPSETLSLTCTVSGNSITSEYAWNWIRQPPGKGLEWIGYISYSGTTSYNPSLKSRVTISRDTSKNQLSLKLSSVTAADTAVYYCARYGYGNPATRYFDVWGQGTLVTVSS
VL: DIQMTQSPSSLSASVGDRVTITCRASKSISKYLAWYQQKPGKTNKLLLYSGSTLQSGVPSRFSGSGSGTDYTLTISSLQPEDFATYYCQQHNEYPWTFGQGTKVEIK
notes: Fab
[1]
  Cy/hu ratio: 19.1
[2]
  koff: 0.000169 s⁻¹
  kon: 131000 M⁻¹ s⁻¹
[3]
  koff: 0.00244 s⁻¹
  kon: 98900 M⁻¹ s⁻¹

From patent US20180057604A1 (Genentech, published 2018)
